Experimental data reported in US20240026017A1 (Kyowa Kirin, published 2024).

T1: human CC chemokine receptor 1 (human CCR1) (human, UniProt P32246 1-355)
T1 sequence: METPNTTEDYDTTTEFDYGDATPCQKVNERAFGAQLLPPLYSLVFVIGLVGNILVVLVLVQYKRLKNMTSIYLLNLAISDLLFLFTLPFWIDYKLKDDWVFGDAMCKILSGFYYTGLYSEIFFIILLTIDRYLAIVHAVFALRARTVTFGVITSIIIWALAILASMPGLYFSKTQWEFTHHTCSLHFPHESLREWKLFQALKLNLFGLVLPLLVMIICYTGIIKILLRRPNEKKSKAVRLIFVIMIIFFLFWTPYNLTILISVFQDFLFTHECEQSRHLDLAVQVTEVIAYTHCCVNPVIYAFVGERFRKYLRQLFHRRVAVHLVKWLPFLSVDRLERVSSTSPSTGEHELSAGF

T2: NC3-mCCR1 (chimeric receptor in which positions 1 to 31 of mouse CCR1 were substituted with the corresponding … (human; mouse, UniProt P51677 1-31)
T2 construct: expressed on CHO-S cells; End 355 from the stated total length of CCR1; also called CHO-S-NC3-mCCR1 (expressing cells)
T2 sequence: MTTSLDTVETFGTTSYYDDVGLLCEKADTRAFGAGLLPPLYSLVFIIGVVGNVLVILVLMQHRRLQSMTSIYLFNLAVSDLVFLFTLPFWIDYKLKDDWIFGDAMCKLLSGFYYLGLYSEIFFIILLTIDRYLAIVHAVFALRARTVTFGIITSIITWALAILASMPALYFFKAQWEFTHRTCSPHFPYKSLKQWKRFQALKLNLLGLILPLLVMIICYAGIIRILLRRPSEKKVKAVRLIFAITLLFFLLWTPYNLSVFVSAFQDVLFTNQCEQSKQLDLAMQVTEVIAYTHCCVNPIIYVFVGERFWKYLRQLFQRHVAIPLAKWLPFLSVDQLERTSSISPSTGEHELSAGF

T3: human CCR3 (human, UniProt P51677 1-355)
T3 construct: whole, on cells; also called hCCR3; CHO-S-hCCR3 (expressing cells)
T3 sequence (looked up): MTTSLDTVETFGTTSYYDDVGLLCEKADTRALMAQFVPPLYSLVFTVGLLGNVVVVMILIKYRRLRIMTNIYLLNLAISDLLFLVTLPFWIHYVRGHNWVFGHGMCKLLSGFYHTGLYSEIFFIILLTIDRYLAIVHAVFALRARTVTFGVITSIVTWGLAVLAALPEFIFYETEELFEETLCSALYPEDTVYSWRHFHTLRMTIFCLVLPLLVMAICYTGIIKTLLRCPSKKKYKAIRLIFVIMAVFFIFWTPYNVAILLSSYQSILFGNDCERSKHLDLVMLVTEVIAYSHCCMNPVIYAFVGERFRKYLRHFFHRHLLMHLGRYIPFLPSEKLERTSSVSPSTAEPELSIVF


What was measured:
[1] = target: T1, human CC chemokine receptor 1 (human …); assay: cell-based or functional assay
[2] = target: T1, human CC chemokine receptor 1 (human …); assay: flow cytometry on CHO-S-hCCR1 cells, antibody 3.2 to 10,000 ng/mL, Geomean compared
Experimental: The antigen affinity of the chKM5908′ antibody, which is a VL-substituted chimeric antibody, was measured by flow cytometry using the CHO-S-hCCR1 cells produced in Example 2. The cells were collected by centrifugation, the supernatant was removed, and the cells were suspended in PBS (Staining Medium, hereinafter, abbreviated as SM) containing 2% fetal bovine serum (FBS), 0.05% NaN₃, and 1 mM EDTA. Next, the cells were seeded in a 96-well plate so that the number of cells is 1×10⁵ per well, and the chKM5908′ antibody was added at each final concentration of 10,000, 2,000, 400, 80, 16, and 3.2 ng/mL, and the reaction was performed at 4° C. for 60 minutes. After washing the cells with SM, Goat F (ab′)₂ Anti-Human IgG PE (γ chain specific) (Southern Biotech) diluted 500-fold with SM was added and reacted at 4° C. for 60 minutes. After washing the cells with SM, the cells were resuspended in 50 μL of SM, and the fluorescence intensity was measured by the flow cytometry (FACS Canto II, BD Biosciences).
The data was analyzed by FlowJo 7.65 (Tommy Digital Biology Co., Ltd.), and the binding strength was compared from the Geomean value at each concentration.

[3] = target: T2, NC3-mCCR1 (chimeric receptor in which …); assay: flow cytometry on CHO-S-NC3-mCCR1 cells, hybridoma culture supernatant diluted 10-fold
Excerpt: (§1) As test antibodies, each hybridoma culture supernatant diluted 10-fold, an existing mouse anti-human CCR1 monoclonal antibody 53504 antibody (R & D Technologies), and a mouse anti-human CCR3 monoclonal antibody 444-11 antibody (MBL) were used.
(§2) Regarding the measurement results, the fluorescence intensity when a certain cell was stained with a certain test antibody (each hybridoma culture supernatant, 53504 antibody or 444-11 antibody) and a secondary antibody was divided by the fluorescence intensity when the cell was stained only with the secondary antibody. […] In Table 2, the results are indicated as A and B, respectively.

human CCR3 = target: T3, human CCR3; assay: flow cytometry on CHO-S-hCCR3 cells, hybridoma culture supernatant diluted 10-fold
Excerpt: as §1, §2

antibody concentration showing THP-1 migration inhibitory activity [1] [µg/mL] | Binder | further results
≥ 0.3 | hzKM5907 LV2bHV3a antibody (antibody, V domains shown) VH: EVQLLESGGGLVQPGGSLRLSCAASGFTFSRYGMSWVRQAPGKRLEWVSSISATFTYTYYTDNVKGRFTISRDNSKNTLYLQMNSLRAEDTGVYYCARQDNYAWFDSWGQGTLVTVSS VL: DIVMTQTPLSLPVTSGEPVSISCRSSQSIVHSNGNTFLEWYLKKPGQSPQLLIYKVSSRFSGVPDRFSGSGSGTDFTLKISRVEAEDVGVYYCFQGSHIPWTFGGGTKVEIK | –
≥ 0.3 | hzmAb5-06 LV5HV14 antibody (antibody, V domains shown) VH: QVQLQQSGPGLVKPSQTLSITCTVSGFSLNNYGVHWVRQPPGKGLEWLGVIWSAGTTVYNAAAISRLTISKDTSKNQVSFKMSSLTAADTAVYYCAKDGSRYYTAMDYWGQGTLVTVSS VL: DVVMTQSPLSLPVTLGEPASISCRSSQSLVHRNGITFFHWYLQKPGQSPKLLIYKISNRFSGVPDRFSGSGSGTDFTLKISRVEAEDVGVYFCSQGTHVPPTFGQGTKLEIK | –
– | chKM5908′ antibody (antibody, V domains shown, chimeric; also called VL-substituted chimeric antibody (VH of chKM5908, VL of chKM5914)) VH: QVQLKQSGPGLVQPSQSLSITCTVSGFSLNNYGVHWVRQPPGKGLEWLGVIWSAGTTVYNAAFISRLSISKDDSKSQVFFKMNSLQAGDTAIYYCAKDGSRYYTAMDYWGQGTSVTVSS VL: DVVMTQTPLSLPVSLGDQASIFCRSSQSLVHRNGITFFHWYLQKPGQSPKLLIYKVSNRFSGVPDRFSGSGSGTDFTLKISRVAPDDLGVYFCSQGTHVPPTFGGGTKLEIK | binding result [2]: binds
≥ 0.3 | hzKM5916 LV2HV0 antibody (antibody, V domains shown) VH: QVQLQESGGGLVKPGGSLKLSCAASGFTFSRNAMSWVRQTPDKRLEWVAYISSGSDYIYYADTVKGRFTISRDNAKNTLYLQMSSLKSEDTAMYYCARFSYGYGKNAPDYWGQGTMVTVSS VL: DIQMTQSPSSLSASVGDRVTITCKASQDINKYIAWYQHKPGKGPKLLIHYTSSLQPGVPSRFSGSGSGTDFSFTISSLQPEDLATYYCLQYDYTMTFGGGTKVEIK | –
– | KM5955 antibody (antibody, mouse IgG2a, V domains shown, mouse IgG2a from hybridoma) VH: EVQLVESGGGLVKPGGSLKLSCAASGFTLRDFGMHWVRQVPEKGLEWVAYISSGRTAISYVDKVKGRFTISRDNAKNTLFLQMTSLRSEDTAMYYCARRPYSKSYAMDYWGQGTSVTVSS VL: DVVLTQTPLSLPVNIGDQASISCKSIKSLLNSDGFTYLDWYLQKPGQSPQLLIYLVSNRFSGVPDRFSGSGSGTDFTLKIRRVEAEDLGVYYCFQSNYLPLTFGAGTKLELK | fluorescence intensity ratio (test antibody + secondary / secondary only) [3]: < 10 fold; fluorescence intensity ratio (test antibody + secondary / secondary only) (human CCR3): < 10 fold
